Values joined by “and” are separate entries in the source; they are usually repeats but may differ in a detail not shown here. Equal entries are not always repeated.
Experiments:
[1] = molecular target: FCGR1 (UniProt P12314)
[2] = molecular target: FCGR 2b/c (UniProt P31994)
[3] = molecular target: FCGR 3a (F 176) (UniProt P08637)
[4] = molecular target: FCGR 2a (H 167) (UniProt P12318)
[5] = molecular target: FcRn (UniProt P55899)
[6] = molecular target: FCGR 3a (V 176) (UniProt P08637)
Chain of FCGR 3a (V 176) (P08637 17-208 F176V limits assumed): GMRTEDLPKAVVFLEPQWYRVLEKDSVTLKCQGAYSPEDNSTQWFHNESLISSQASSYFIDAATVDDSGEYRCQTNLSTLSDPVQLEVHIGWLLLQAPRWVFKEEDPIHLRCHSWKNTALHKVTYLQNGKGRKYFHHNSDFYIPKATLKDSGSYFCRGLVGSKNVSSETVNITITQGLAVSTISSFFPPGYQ

Chain of FCGR 2b/c (P31994 46-217 limits assumed): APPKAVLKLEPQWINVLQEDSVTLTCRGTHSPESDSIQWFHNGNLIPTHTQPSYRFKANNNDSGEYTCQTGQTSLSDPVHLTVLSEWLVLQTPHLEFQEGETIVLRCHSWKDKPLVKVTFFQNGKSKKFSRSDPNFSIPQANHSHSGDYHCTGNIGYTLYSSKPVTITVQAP
Chain of FcRn (P55899 24-297 limits assumed, chain 1 of 2): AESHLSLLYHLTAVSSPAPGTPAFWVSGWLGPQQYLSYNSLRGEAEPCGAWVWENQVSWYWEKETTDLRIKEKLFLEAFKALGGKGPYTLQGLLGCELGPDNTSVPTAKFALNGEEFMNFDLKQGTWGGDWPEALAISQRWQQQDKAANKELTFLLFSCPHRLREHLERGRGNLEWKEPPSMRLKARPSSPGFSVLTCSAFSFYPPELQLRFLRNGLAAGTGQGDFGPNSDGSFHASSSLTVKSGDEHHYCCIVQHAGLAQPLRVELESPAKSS
Chain of FcRn (P61769 21-119 limits assumed, chain 2 of 2, further chain): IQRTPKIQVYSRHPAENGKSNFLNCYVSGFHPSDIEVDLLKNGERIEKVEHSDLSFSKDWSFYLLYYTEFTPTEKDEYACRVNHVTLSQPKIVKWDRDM
Chain of FCGR 3a (F 176) (P08637 17-208 limits assumed): as the sequence (P08637 17-208 F176V limits assumed) above, with V160F counted along it
Chain of FCGR1 (P12314 16-288 limits assumed): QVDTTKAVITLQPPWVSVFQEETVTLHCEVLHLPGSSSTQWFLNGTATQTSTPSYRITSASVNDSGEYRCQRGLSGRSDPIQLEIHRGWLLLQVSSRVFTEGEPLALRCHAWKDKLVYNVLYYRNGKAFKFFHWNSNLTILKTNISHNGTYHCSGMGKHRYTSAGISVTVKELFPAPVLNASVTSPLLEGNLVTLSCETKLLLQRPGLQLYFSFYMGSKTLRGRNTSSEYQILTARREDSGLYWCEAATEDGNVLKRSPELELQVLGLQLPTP

human IgG1 isotype control (antibody)
Kd [1]: 0.46 nM
koff [1]: 0.000245 s⁻¹
Kd [2]: 1360 nM and 1590 nM
Kd [3]: 1110 nM and 796 nM
Kd [4]: 462 nM and 537 nM
Kd [5]: 81.1 nM and 86.5 nM
Kd [6]: 161 nM and 210 nM

Source: patent US20230192818A1
